assay: label from the status in PepcDB records

Row | Sequence | protein production
1 | MVNFDEEVFRAYYEHKIKSFIKEELSNNLIKGNIFEFDIEKFLMHFPDACEVNDLIIERPKEIEEIILDIFKEAYVELFGEDKELEKIQIAFKNPKGCEKLIEEISAEDINKLVKFEGNILQAGKVNALLKKAVYYCNKRIKDENGGFLCKYTYTPCDGRVEIEIDDYFSEGEFIKDMLSPREVKKILENKKVWDKLVEKGKIPRCVDLKENDEVFKENLKEIKFILDEYDSIYVNIQEMEIQQPIDLMKNPEEPARSIRVFLENTPGIYAGRVNVIGRVMKREYRHNIPIYKIYIKSNYIKISESYNKIEVKDILRNEELIETLNELGRKKNIIDILSNYLISQIKGYELVKKAIFLQQIKGAFKFLPDGTPLRRDSHILLITDPGIGKSTMLRRIARLFPQNAYASVTTATGGGLTAIVTREATEIGDGWVVKPGVFVRANEGTACIDELTVDKNVMKYILEAMESQTIHVNKGGINVKLPARCAVLAACNPKRGRFDRNLTVIEQIDIPAPLLSRFDLIFPLMDKPNRKSDEEIAEHILNTHIETATKDYKILGAIDIDGITVDEKLLKYYIIYARSCAYIEENQDLYLGEFDETKLIMPYLTDKAKKMIKKYYLEMRKLGEGDNPIPITARQLEAIIRIAEMHAKARLSDKVEDVDAEVAISIIDDCLKQVAYDPETGTLDLDKIAGTPKSRRDKMDAVLNIIREIVSLRDDGLAPEEEIYEKAMAIGLSEKDVNDALEYLKKAGDIYNPRYGFWGLL | failed
2 | MVNILSLFTLAALWGGSFLFVRIAANPLGPAVLIEVRVAFAALTLLVVSFFLKKSLRFMSNIKHFLILGLFNSALPFLLFAYSAQVLNVSTLAVLNSTAPIWGAVIGAIWTRTRLSKDVIFGLILGMIGVSVLVGWEAINIGDEAIIPIITALIGAFSYGVATNYAKNAPSVEPFNNAHGSMWASVLLVLPLVPFMPVREEVTSDIIAAVFALGAVCTGLAYLLYFRLIKELGASSALTVTFIIPVFGILWGYLFLGETVGVNAIIGTILVVIGTMFVTGFASKFMSKKCV | failed
3 | MVNLDAEIYEHLNKQIKINELRYLSSGDDSDTFLCNEQYVVKVPKRDSVRISQKREFELYRFLENCKLSYQIPAVVYQSDRFNIMKYIKGERITYEQYHKLSEKEKDALAYDEATFLKELHSIEIDCSVSLFSDALVNKKDKFLQDKKLLISILEKEQLLTDEMLEHIETIYENILNNAVLFKYTPCLVHNDFSANNMIFRNNRLFGVIDFGDFNVGDPDNDFLCLLDCSTDDFGKEFGRKVLKYYQHKAPEVAERKAELNDVYWSIDQIIYGYERKDREMLIKGVSELLQTQAEMFIF | not failed
4 | MVNPAQARQLDKIRKVNYASNTFELIAKEWLQMKDWAEITKTRRLDMLERVVFPAIGKLPVREITPHHILKILQETAKRGAPTVAAEARRTISSVFELAVATLRADSDPVWPVRKALPALEHHHHHH | failed
5 | MVPEFIILGAAILLSICDLFFKLNHRYVALGAIAAIVLAIVSLITLYSEPAGDILNGSFVLDGFSKGFKTLLLGASALILCTAMSDDKKNPIEDKGEYYYLFLMALLGAMFMASSVDFITLFVGLELLSLSSYILVGIRKKSRASNEAAMKYVISGGIGTAITLFGMSYLYGITGSTNIVDMQKVLTGELASGIQLLLALAFLLLLVGLSFKIATVPFHMWAPDVYEGAATPVTAFLGTISKIAGFLLIIRLFLMIFASVLIQGDMQSLYGHMSIYIAVLASITMIVGNVVALKQYNIKRLFAYSGIAHAGYLLVPLVALSPFTMDSMWFYMLAYMLMNIGAFAIIHGLILQNNEENITIFTGLYKRSPFTAIMMTIFILSLAGIPGTAGFIGKINIFLGALHVEPAHYVLASIMMGTTVVSFVYYFRILQQMFFRTGETEERIRLPLNIKVVMSLCAISIVILGIMPMIGYNFFYEYFPLMKDFFFLGNVVQ | not failed
6 | MVPEITIDVNVFPSPRKSSSNTVEINLKRESDDKCDDAPLFQITQLILKDVVNFDPHKTSPLLETIFPDSISGTRLCVEMALASERVPAPFDMYLHVTVRFVEESTSSSPLENKTCAICLEDMSQDVHDYQEMPNCPHVFHNDCIYKWLGHSNLCPLCRTVLEDEDDDDYPYYS | failed

Source: a protein production outcome set (Wang et al. 2014)
